In paper PMC4520715:

Assays:
Test in all cases: co-IP
[1] = molecular target: myc-UBQLN1 (human) (human) (UniProt Q9UMX0)
[2] = molecular target: Rv1926c-V5 (Mycobacterium tuberculosis) (UniProt P9WIP1)
[3] = molecular target: Rv1566-V5 (Mycobacterium tuberculosis)

UniProt P9WIP1, sequence (P9WIP1 30-159): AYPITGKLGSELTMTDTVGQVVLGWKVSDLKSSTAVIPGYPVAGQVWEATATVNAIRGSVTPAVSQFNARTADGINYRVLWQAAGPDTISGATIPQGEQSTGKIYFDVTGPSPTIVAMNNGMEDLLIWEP

| Substance | percent of the amount directly precipitated [1] | percent of the amount precipitated directly with the myc antibody [2] | percent of the amount directly precipitated [3] |
| --- | --- | --- | --- |
| Rv1566-V5 (natural protein) | 7% |  |  |
| myc-UBQLN1 (human) (from UniProt Q9UMX0 1-589) (natural protein) |  | 27% | 7% |
